Residues, ends and D or L forms follow the SMILES beside them. *: point of attachment. Palmitoyl = CCCCCCCCCCCCCCCC(=O)*
Assays:
[1] = Circular dichroism (CD) spectroscopy of pH-triggered self-assembly transition in 150 mM NaCl, 2.2 mM CaCl2; format: physicochemical; conditions: for CD Transition pH: random coil to β-sheet; for secondary structure by CD: irrespective of concentration and pH (pH 5-10)
Method: The target PA concentration (10 μM) was below the detectable limit of conventional techniques to determine the morphology such as cryoTEM and small-angle X-ray scattering. Consequently, circular dichroism (CD) spectroscopy was initially used to characterize the morphology of these PAs at various pH values. PA1 was the first molecule synthesized that underwent a self-assembly transition in the desired pH range of 6.6-7.4 at 10 μM PA concentration, in 150 mM NaCl and 2.2 mM CaCl2 (FIG. 2A) (Goldberger, J. E., et al. Angew. Chem. Int. Ed. 2011 50:6292-95). […] The transition pH from random coil to β-sheet occurred at a pH of 6.6. The transition pH was defined as the value at which the ellipticity at 205 nm rises to zero, followed by the appearance of a minimum at 218-220 nm.
Measurements were done on a Jasco-815 Circular Dichroism spectrometer using 1 cm path length quartz cuvettes. 10 μM solutions of peptide amphiphiles were prepared in 150 mM NaCl and 2.2 mM CaCl2 by dilution from a concentrated PA stock (0.5-1 mM, pH 9). Double de-ionized Milli-Q water was used for preparing all solutions. The solutions were then heated at 80° C. for 30 minutes in a water bath and gradually cooled to room temperature. An Accumet XL15 pH meter (Fisher Scientific) coupled with an Orion Ross Ultra semi-micro electrode (8103BNUWP, Thermo Scientific) was used to adjust the pH of the solution to the desired value followed by collection of the CD spectra Each trace shown was averaged over 3 accumulations and was baseline subtracted using aqueous solutions containing salts only. All spectra are cut-off below 205 nm due to absorption by NaCl and CaCl2.
Measurements were done on a Jasco-815 Circular Dichroism spectrometer using 0.5-1 cm path length quartz cuvettes. 500-10 μM of either pure PA or PA mixtures were prepared in 150 mM NaCl and 2.2 mM CaCl2 (and 1.8 mM 20 kDa PEG in select samples) by dilution from a concentrated PA stock (0.5-1 mM, pH 9). Double de-ionized Milli-Q water was used for preparing all solutions. The solutions were then heated at 80° C. for 30 minutes in a water bath and gradually cooled to room temperature. An Accumet XL15 pH meter (Fisher Scientific) coupled with an Orion Ross Ultra semi-micro electrode (8103BNUWP, Thermo Scientific) was used to adjust the pH of the solution to the desired value followed by collection of the CD spectra. Each trace shown was averaged over 3 accumulations and was baseline subtracted using aqueous solutions containing salts only. All spectra are cut-off below 200 nm due to absorption by NaCl and CaCl2. The same procedure was followed for the salt control samples with 3.0 and 4.0 mM CaCl2.
Self-assembly behavior is known to be extremely sensitive to minor changes in monomer structure and presence of impurities. […] CAC measurements via the pyrene 1:3 method (Das, D. et al. J. Colloid Interface Sci. 2008, 327:198) were used to ascertain the single molecule to spherical micelle transitions at varying pH values (FIGS. 24A-24C). CD Spectroscopy was used to determine the pH points at which different concentrations (10-500 μM) of the PA molecules transitioned from a random coil to a β-sheet secondary structure (FIGS. 25A-25C). It has been previously shown that the random coil and β-sheet structures correspond to spherical micellar/isolated molecule and nanofiber morphologies respectively (Ghosh, A. et al. J. Am. Chem. Soc. 2012, 134:3647). The CD transition point was defined to be the pH value at which the ellipticity at 200 nm rose from a negative value (random coil) to zero accompanied by the appearance of a minimum at 218-220 nm. The addition of PA66 shifted the CD transition pH to more basic values by ˜0.6 pH units. […] This ˜0.6 pH shift in CD transition pH to more basic values were also observed when 1.5% of PA67 was added to PA65. […]

[2] = Transmission electron microscopy (TEM) of self-assembled morphology; format: physicochemical; conditions: for average diameter of isolated nanofibers: 0.5 mM; for fiber diameter: pH 8.0 (100 μM, FIG. 40)
Method: TEM images were obtained using solutions of either 10 μM or 0.5 mM peptide amphiphile concentration, as well as 150 mM NaCl and 2.2 mM CaCl2 in Milli-Q water. The solutions were first heated at 80° C. for 30 minutes in a water bath and then gradually cooled to room temperature. This was followed by pH adjustment using either HCl or NaOH. 5 μL of this solution was pipetted onto a Carbon Formvar grid (Electron Microscopy Sciences) and allowed to sit for 2 minutes before being wicked dry using filter paper. For the 10 μM experiments that were performed to determine the time dependence of nanofiber formation, solutions were dropcast onto the grid within three minutes of pH adjustment. The samples were then negatively stained using 1 wt % uranyl acetate and imaged under a FEI Tecnai G2 Bio TWIN TEM system, operating at 100 kV. All TEM experiments were performed in triplicate, using at least three different freshly prepared solutions and grids. […]
TEM images were obtained at various concentrations and pH values, with 150 mM NaCl and 2.2 mM CaCl2 in deionized water. Solutions were heated at 80° C. for 30 minutes and gradually cooled to room temperature. Following temperature equilibration, pH adjustment was achieved using HCl or NaOH. 5 μL of this solution was pipetted onto a Carbon Formvar grid (Electron Microscopy Sciences) and allowed to sit for 2 minutes before being wicked dry using filter paper strips. The samples were negatively stained with 1 wt % uranyl acetate and imaged under a FEI Tecnai G2 Bio TWIN TEM system operating at 100 kV.
Transmission electron microscopy was employed to confirm the self-assembled morphology at different pH values and concentrations. The sample to be tested was basified to a pH of 10, stirred at 90° C. in an oil bath for 30 minutes and cooled to room temperature. The pH was then adjusted with HCl and NaOH to set the peptide solution (in 150 mM NaCl and 2.2 mM CaCl2) to a pH of either 5 or 9. Once the desired pH was reached, 5 μL of the sample was placed and spread onto a Carbon Formvar grid (Electron Microscopy Sciences) and allowed to sit for one minute before being wicked dry with filter paper. A 1 wt % uranyl acetate solution was added and spread over the grid to negatively stain the sample, and was wicked dry immediately after application. The grid was then examined by a FEI Tecnai G2 Biotwin TEM at 100 keV. The diameters of each self-assembled morphology was determined via averaging at least 30 different objects.

[3] = 10 μM PA, 150 mM NaCl, 2.2 mM CaCl2

CCCCCCCCCCCCCCCC(=O)N[C@H](C(=O)N[C@@H](C)C(=O)N[C@@H](C)C(=O)N[C@@H](C)C(=O)N[C@@H](CCC(=O)O)C(=O)N[C@@H](CCC(=O)O)C(=O)N[C@@H](CCC(=O)O)C(=O)N[C@@H](CCC(=O)O)C(N)=O)[C@@H](C)CC [PA1] (Palmitoyl-IAAAEEEE-NH2)
pH above which CD shows superimposable random coil morphology [1, 3]: 6.82
CD Transition pH [1, 3]: 6.6
time required to achieve the expected morphology after pH change ([1]; 10 μM, 150 mM NaCl, 2.2 mM CaCl2): three minutes or less
transition between random coil and β-sheet structure (reversibility) ([1]; 10 μM, pH switched between 7.75 and 6.1, three cycles): rapid and reversible
pH transition point at 10 μm PA ([1]; basic to acidic transition from small molecule to cylindrical nanofiber, simulated serum environment): 6.6
average diameter of isolated fibers ([2]; 10 μM, pH 6): 9.1±1.5 nm
average length of isolated fibers ([2]; 10 μM, pH 6, grids within three minutes of pH adjustment): 590±200 nm
fibers observed by TEM ([2]; 10 μM, pH 8): no fibers were present
average diameter of isolated nanofibers ([2]; pH 6.0): 9.4±1.1 nm
average diameter of isolated nanofibers ([2]; pH 10.0): 9.5±1.2 nm

CCCCCCCCCCCCCCCC(=O)N[C@@H](C)C(=O)N[C@H](C(=O)N[C@@H](C)C(=O)N[C@@H](C)C(=O)N[C@@H](CCC(=O)O)C(=O)N[C@@H](CCC(=O)O)C(=O)N[C@@H](CCC(=O)O)C(=O)N[C@@H](CCC(=O)O)C(N)=O)[C@@H](C)CC [PA68] (Palmitoyl-AIAAEEEE-NH2)
morphology by CD ([1]; 8.4 μM and above): formed nanofibers across all pH values
nanofiber diameter ([2]; 100 μM, pH 5.0 and 8.3): 9.5±0.8 nm

Palmitoyl-AAAIEEEE-NH2 (SMILES CCCCCCCCCCCCCCCC(=O)N[C@@H](C)C(=O)N[C@@H](C)C(=O)N[C@@H](C)C(=O)N[C@H](C(=O)N[C@@H](CCC(=O)O)C(=O)N[C@@H](CCC(=O)O)C(=O)N[C@@H](CCC(=O)O)C(=O)N[C@@H](CCC(=O)O)C(N)=O)[C@@H](C)CC) [PA70]
secondary structure by CD [1]: β-sheet secondary structure regardless of concentration and pH
fiber diameter [2]: ~9.0±0.8 nm

Palmitoyl-AIAAEEEEK(DO3A:Gd)-NH2 (Palmitoyl-AIAAEEEEK(DO3A)-NH2; also: DO3A chelates Gd) [PA71]
secondary structure by CD [1]: exclusively 3-sheet formation irrespective of concentration and pH
nanofiber length ([2]; pH 6.6, 150 μM): > 1 μm
nanofiber width ([2]; pH 6.6, 150 μM): ~11.3±1.1 nm
fiber diameter [2]: ~9.6±0.5 nm

Palmitoyl-IAAAEEEEK(DO3A:Gd)-NH2 (Palmitoyl-IAAAEEEEK(DO3A)-NH2; also: DO3A chelates Gd) [PA5]
CD Transition pH [1, 3]: 5.7
nanofiber to micelle transition pH ([1]; 20 μM PA): 5.7
nanofiber to micelle transition pH ([1]; 0.5 mM PA): 6.0
pH transition point at 10 μm PA ([1]; basic to acidic transition from spherical micelle to cylindrical fiber, simulated serum environment (150 mM NaC, 2.2 mM CaCl2)): 5.7
nanofiber diameter ([2]; 0.5 mM PA, pH 4): 11.9±1.6 nm
spherical micelle diameter ([2]; 0.5 mM PA, pH 10): 10.0±1.2 nm

palmitoyl-YYAAEEEEEK(DO3A:Gd)-NH2 (Palmitoyl-YYAAEEEEEK(DO3A)-NH2; also: DO3A chelates Gd) [PA74]
pH below which nanofibers form (CD morphology transition) ([1]; 50 μM): 5.75
nanofiber diameter ([2]; FIG. 50: pH 5, PA74 500 μM, PA75 100 μM): 9.7+/−1.2 nm
morphology by TEM ([2]; pH 5, PA74 500 μM, PA75 100 μM): nanofiber morphology
morphology by TEM ([2]; pH 9, PA74 500 μM, PA75 100 μM): spherical micelle morphology
